The record followed here is PMC7921410, “Structure of mammalian Mediator complex reveals Tail module architecture and interaction with a conserved core” (Nature Communications, 2021).

For this assay, the target named is T1, MED24 (mouse (Mus musculus; endogenous in CH12), UniProt Q99K74 1-987).
T1 construct: MED24, Mus musculus, endogenous lower Tail subunit of Mediator; source: endogenous, CH12 mouse B lymphoma nuclear extract; immunopurified as part of Mediator (FLAG M2 agarose, FLAG peptide elution)
T1 sequence (looked up): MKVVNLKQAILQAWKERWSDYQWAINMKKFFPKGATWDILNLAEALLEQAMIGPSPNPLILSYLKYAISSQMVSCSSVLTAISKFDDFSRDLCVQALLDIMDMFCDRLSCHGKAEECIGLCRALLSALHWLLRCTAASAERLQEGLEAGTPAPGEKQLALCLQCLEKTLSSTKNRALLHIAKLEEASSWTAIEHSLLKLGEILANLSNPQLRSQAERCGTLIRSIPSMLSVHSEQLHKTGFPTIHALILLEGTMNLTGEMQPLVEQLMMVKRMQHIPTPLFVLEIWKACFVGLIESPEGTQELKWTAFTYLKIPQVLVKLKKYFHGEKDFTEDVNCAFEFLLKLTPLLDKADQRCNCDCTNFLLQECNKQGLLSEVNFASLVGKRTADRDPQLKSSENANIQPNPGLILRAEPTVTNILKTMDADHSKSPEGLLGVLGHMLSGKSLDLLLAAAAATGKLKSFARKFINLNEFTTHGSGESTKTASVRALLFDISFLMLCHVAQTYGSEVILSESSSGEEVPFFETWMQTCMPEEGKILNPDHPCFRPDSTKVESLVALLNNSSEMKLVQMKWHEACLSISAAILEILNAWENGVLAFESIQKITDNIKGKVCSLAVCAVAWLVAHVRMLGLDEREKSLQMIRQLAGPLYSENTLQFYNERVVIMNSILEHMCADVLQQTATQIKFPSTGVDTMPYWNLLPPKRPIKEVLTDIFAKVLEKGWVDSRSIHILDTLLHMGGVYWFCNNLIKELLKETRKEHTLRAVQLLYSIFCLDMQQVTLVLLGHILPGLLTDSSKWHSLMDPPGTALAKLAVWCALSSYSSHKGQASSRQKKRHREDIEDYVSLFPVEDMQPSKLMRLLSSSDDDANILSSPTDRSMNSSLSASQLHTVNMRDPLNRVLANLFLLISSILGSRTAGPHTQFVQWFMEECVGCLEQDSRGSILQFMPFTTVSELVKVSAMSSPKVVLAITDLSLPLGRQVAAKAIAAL
In words: cryo-EM structure; endogenous mouse Mediator immunopurified from CH12 nuclear extract through 3×FLAG-MED19 or 3×FLAG-MED25; eluted in 50 mM HEPES pH 7.9, 100 mM KCl, 5% glycerol, 1 mM EDTA, 0.005% NP-40; map at 4.0 Å overall, focused refinement of the MED1 and knob/hook ends (6-10 Å). As to conditions: both partners purified.

B1: MED15 (natural protein, mouse (Mus musculus; endogenous in CH12), UniProt Q924H2 1-789, looked up)
chain: MDVSGQETDWRSAAFRQKLVSQIEDAMRKAGVAHSKSSKDMESHVFLKAKTRDEYLSLVARLIIHFRDIHNKKSQASVSDPMNALQSLTGGPTPGAAGIGMPPRGPGQSLGGMGGLGAMGQPLPLSGQPPPGTSGMAPHGMAVVSTATPQTQLQLQQVALQQQQQQQQQQQFQQQQAALQQQQQQQQQQQQQQQFQAQQNAMQQQFQAVVQQQQLQQQQQQQHLIKLHHQSQQQQIQQQQLQRMAQLQLQQQQQQQQQQALQAQPPMQQPSMQQPQPPPSQALPQQLSQLHHPQHHQPPPQAQQSPIAQNQPPQIPPQSQSQPLVSQAQALPGPMLYAAQQQLKFVRAPMVVQQPQVQPQVQQVQPQVQPQAAVQAAQSAQMVAPGVQMIAEALAQGGMHVRARFPPTSTMSAGPSSSISLGGQPTTQVSQSSLTMLSSPSPGQQVQTPQSMPPPPQPSPQPGSQPNSNVSSGPAPSPSSFLPSPSPQPSQSPVTARTPQNFSVPSPGPLNTPVNPSSVMSPAGSSQAEEQQYLDKLKQLSKYIEPLRRMINKIDKNEDRKKDLSKMKSLLDILTDPSKRCPLKTLQKCEIALEKLKNDMAVPTPPPPPVLPTKQQDLCQPLLDAVLANIRSPVFNHSLYRTFVPAMMAIHGPPIVSPVVCSRKRRFEEDERQSIPNVLQGEVARLDPKFLVNLDPSHCSNNGTVHLICKLDDKDLPSVPPLELSVPADYPAQSPMWIDRQWQYDANPFLQSVHRCMTSRLLQLPDKHSVTALLNTWAQSIHQACLSAA
notes: MED15, Mus musculus, endogenous lower Tail subunit of Mediator; only the C-terminal portion (from residue 620) is seen in the map; source: endogenous, CH12 mouse B lymphoma nuclear extract; immunopurified as part of Mediator (FLAG M2 agarose, FLAG peptide elution)
Regarding B1, the binding result is recorded as “binds”.

B2: MED25 (natural protein, mouse (Mus musculus; endogenous in CH12), UniProt Q8VCB2 1-745, looked up)
chain: MVPGSEGPARAGGLVADVVFVIEGTANLGPYFEELRKHYLLPAIEYFNGGPPAETDFGGDYGGTQYSLVVFNTVDCAPESYVQCHAPTSSAYEFVTWLDGIKFMGGGGESCSLIAEGLSTALQLFDDFKKMREQIGQTHRVCLLICNSPPYLLPAVESTTYSGCTTESLVQKIGERGIHFSIVSPRKLPALRLLFEKAAPPALLEPLQQPADVSQDPRHMVLVRGLVLPVGGSSTSGSLQTKQAVPLPPAPASAATLSAAPPQALPPVPPQYQVPGNLSAAQVAAQNAVEAAKSQKAGLGPRFSPINPLQQAAPGVGPPFSQAPAPPLAPVPPGAPKPPPASQPSLVSTVAPGPVLAAPAQPGAPSLAGTVTPGGVNGPSAAQLGGPALGGQQSVSNKLLAWSGVLEWQEKPKPASVDANTKLTRSLPCQVYVNHGENLKTEQWPQKLIMQLIPQQLLTTLGPLFRNSRMVQFHFTNKDLESLKGLYRIMGNGFAGCVHFPHTAPCEVRVLMLLYSSKKKIFMGLIPYDQSGFVNGIRQVITNHKQVQQQKLEQQRGMGAQQAPPVLGPILEEQARPPQNLLQLRAPQPQPQGAVGASAATGQPQPQGATQAPTGAPQGPPGAAPGPPPSGPILRPQNPGANPQLRSLLLNPAPPQTGVPPPQASLHHLQPPGAPTLLPPHQSMGQPQLGPQLLHPPPAQSWPTQLPQRAPLPGQMLLSGGPRGPVPQPGLQPSVMEDDILMDLI
notes: MED25, Mus musculus, endogenous lower Tail subunit of Mediator; only the N-terminal von Willebrand domain (aa 15-216) is seen in the map; The 3×FLAG tag stands on MED25 only in the MED25-FLAG cell line; in the MED19-FLAG line MED25 is untagged; Images from the datasets were combined for the final map; also called MED25-FLAG; source: endogenous, CH12 mouse B lymphoma nuclear extract; …
On to B2, for which the binding result is “binds”.
